Patent US9562073B2, “Matriptase and u-plasminogen activator substrates and other cleavable moieties and methods of use thereof” (CytomX Therapeutics, Inc., priority 2014, dated 2017)

Target: T1, Human matriptase-1 (Homo sapiens, UniProt Q9Y5Y6)
T1 construct: purchased Research & Diagnostics Systems, Inc
T1 sequence (Q9Y5Y6 1-855): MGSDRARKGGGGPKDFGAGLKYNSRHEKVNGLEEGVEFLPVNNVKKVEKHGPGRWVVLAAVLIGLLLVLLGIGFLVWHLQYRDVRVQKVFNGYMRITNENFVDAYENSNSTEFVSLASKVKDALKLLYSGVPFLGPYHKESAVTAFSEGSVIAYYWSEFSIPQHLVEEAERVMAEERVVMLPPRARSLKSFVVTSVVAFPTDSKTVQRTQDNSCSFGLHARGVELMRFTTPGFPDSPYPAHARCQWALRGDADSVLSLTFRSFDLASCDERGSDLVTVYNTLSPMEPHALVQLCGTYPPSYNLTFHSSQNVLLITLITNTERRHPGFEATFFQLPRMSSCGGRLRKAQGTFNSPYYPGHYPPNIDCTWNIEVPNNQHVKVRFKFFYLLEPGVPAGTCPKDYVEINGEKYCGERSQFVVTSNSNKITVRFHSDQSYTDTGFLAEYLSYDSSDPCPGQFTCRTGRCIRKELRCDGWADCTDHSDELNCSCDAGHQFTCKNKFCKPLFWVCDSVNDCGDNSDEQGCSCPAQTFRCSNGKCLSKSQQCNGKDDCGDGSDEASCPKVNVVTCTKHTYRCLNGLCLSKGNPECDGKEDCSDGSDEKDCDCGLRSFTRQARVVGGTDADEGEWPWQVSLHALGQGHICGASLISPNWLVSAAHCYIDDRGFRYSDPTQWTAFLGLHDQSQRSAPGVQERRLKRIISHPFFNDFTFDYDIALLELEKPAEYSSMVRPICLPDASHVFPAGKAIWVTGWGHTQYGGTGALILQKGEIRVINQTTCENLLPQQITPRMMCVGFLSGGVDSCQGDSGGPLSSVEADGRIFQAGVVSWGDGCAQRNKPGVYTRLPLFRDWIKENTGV
Test: Substrate cleavage by matriptase-1 on cell-displayed platform scaffold (eCLiPS3.0), flow cytometry
Type: biochemical
Settings: substrate displayed in platform scaffold; TBST
Protocol: Reagents and Strains: Streptavidin-conjugated phycoerythrin (SA-PE) (Invitrogen, Life Technologies) was used without modifications. Human matriptase-1 (Research & Diagnostics Systems, Inc.) was used without modifications. Human plasmin (Haematologic Technologies Inc.) was used without modifications. Human tPA (Molecular Innovations) was used without modifications. YPet fused to the SH3 domain of Mona (monocytic adaptor) was used without modifications. TBST, 50 mM Tris-HCl, 150 mM NaCl, 0.05% Tween20, pH 7.4, was used. […]
Substrate Cleavage and Scaffold Stability Analysis: For screening and clone analysis, overnight cultures were subcultured by dilution into fresh medium (1:50) and grown for 1.5-2 hours. […] After incubation on ice (30 min), cells were washed with PBS and analyzed using a FACSAria™ cell sorter.
For protease cleavage assays, cultures were induced for 1 hour. […] Background hydrolysis of the regions flanking the substrate site (using platform eCLiPS3.0-NSUB_SP described in PCT patent application PCT/US13/54378, filed Aug. 9, 2013 and published as WO 2014/026136 on Feb. 13, 2014), was measured under each reaction condition to ensure that hydrolysis occurred in the designated substrate region. […]
Specifically, for each sample, conversion was determined by flow cytometry analyses using the relationship […]
[formula] allowing substrate conversion to be expressed as […]

Sequence: VAGRSMRP (Cleavable moiety)
- cleavage by matriptase-1: cleavage
